Measurements published in patent US20220125885A1, “GLUCAGON ANALOG AGONISTS AND METHODS OF USING THE SAME” (Eli Lilly and Company, priority 2019, published 2022).
Where no end group is shown, it is not given here. [ ]: non-standard residue; d: D form. 4Pal = N[C@@H](Cc1ccncc1)C(=O)O; Dab = NCC[C@H](N)C(=O)O; Aib = CC(C)(N)C(=O)O

T1: human GIP receptor (hGIP-R) (Homo sapiens, UniProt P48546)
T1 construct: expressed in transfected cells; host or cells: HEK-293 clonal cell line
T1 sequence (P48546 22-466): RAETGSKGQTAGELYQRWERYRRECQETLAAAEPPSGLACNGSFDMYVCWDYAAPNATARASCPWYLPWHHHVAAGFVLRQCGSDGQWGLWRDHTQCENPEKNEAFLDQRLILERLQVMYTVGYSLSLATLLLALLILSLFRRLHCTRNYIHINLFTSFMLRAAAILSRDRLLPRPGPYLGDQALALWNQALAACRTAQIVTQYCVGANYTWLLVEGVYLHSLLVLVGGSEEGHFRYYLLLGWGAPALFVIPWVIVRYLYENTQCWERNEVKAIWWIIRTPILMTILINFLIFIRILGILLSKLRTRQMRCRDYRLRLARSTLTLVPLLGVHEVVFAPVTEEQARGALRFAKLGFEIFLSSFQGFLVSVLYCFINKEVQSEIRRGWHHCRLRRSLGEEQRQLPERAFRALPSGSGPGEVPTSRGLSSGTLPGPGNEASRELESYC


Assays:
[1] = biological target: T1, human GIP receptor (hGIP-R); assay: cAMP functional activity assay, hGIP-R HEK-293 cells; format: cell-based
Protocol: After a sixty-minute incubation at room temperature, the resulting increase in intracellular cAMP is quantitatively determined using a cAMP Dynamic 2 HTRF Assay Kit (62AM4PEJ; CisBio; Codolet, FR). Briefly, cAMP levels within the cell are detected by adding a cAMP-d2 conjugate in cell lysis buffer (10 μl) followed by an anti-cAMP-Eu3+-Cryptate antibody, also in cell lysis buffer (10 μl). […] A relative EC50 value and percent top (Emax) are derived by non-linear regression analysis using the percent maximal response vs. the concentration of peptide added, fitted to a four-parameter logistic equation.

[2] = in vivo; settings: male, Yucatan miniature swine, pig, sc, 10 ug/kg
Protocol: 1. […] The compounds and an analog as an internal standard are extracted from […] by antibody or protein precipitations. The intact mass of the compounds are detected by a Q Exactive® Orbitrap® Mass Spectrometer (Thermo Fisher Scientific; Waltham, Mass.). 2. […] Blood is collected at pre-dose, 2, 5, 10, 15, 20, 25, 30, 45, 60, 75, 90, 120 and 150 minutes post-dose, and plasma is obtained for pharmacokinetic characterization. […] Blood is collected at pre-dose, 2, 5, 10, 15, 20, 25, 30, 45, 60, 75, 90, 120 and 150 minutes postdose, and plasma is obtained for pharmacokinetic characterization.

[3] = biological target: T2, human GLP-1 receptor (hGLP-1R) (Homo sapiens, UniProt P43220); assay: cAMP functional activity assay, hGLP-1R HEK-293 cells; format: cell-based; settings: HEK293; percent of response to 10 nM GLP-1(7-36)NH2; mean ± SEM
T2 construct: expressed in transfected cells; host or cells: HEK-293 clonal cell line

[4] = biological target: T3, rat glucagon receptor (rat, UniProt P30082 27-485); assay: SPA competition with 125I-labelled glucagon on rGCGR membranes
T3 construct: whole, on cells; cAMP assay used a cloned rat glucagon receptor HEK293 cell line; also called rGCGR; ratGCGR
Protocol: (§1) Plates are sealed, mixed on a plate shaker, and read with a MicroBeta™ scintillation counter (PerkinElmer) after 12 hr of settling time at room temperature.
The SPA receptor binding assay and calculation of the results are carried out as described in the hGCGR binding assay.

[5] = biological target: T3, rat glucagon receptor; assay: cell-based or functional assay
[6] = biological target: T4, human GLP-1 receptor (human, UniProt P43220 24-463); assay: cell-based or functional assay
[7] = biological target: human GIP receptor (human) (UniProt P48546); assay: cell-based or functional assay
[8] = biological target: T5, human glucagon receptor (human, UniProt P47871 26-477); assay: SPA competition with 125I-labelled glucagon on hGCGR membranes
T5 construct: whole, on cells; cAMP assay used whole cells; also called hGCGR; GcgR
Excerpt: as §1

[9] = biological target: T5, human glucagon receptor; assay: cell-based or functional assay
[10] = biological target: T4, human GLP-1 receptor; assay: cell-based or functional assay; remark: listed apart in the source
[11] = biological target: T5, human glucagon receptor; assay: cell-based or functional assay; remark: listed apart in the source

T3 sequence (P30082 27-485): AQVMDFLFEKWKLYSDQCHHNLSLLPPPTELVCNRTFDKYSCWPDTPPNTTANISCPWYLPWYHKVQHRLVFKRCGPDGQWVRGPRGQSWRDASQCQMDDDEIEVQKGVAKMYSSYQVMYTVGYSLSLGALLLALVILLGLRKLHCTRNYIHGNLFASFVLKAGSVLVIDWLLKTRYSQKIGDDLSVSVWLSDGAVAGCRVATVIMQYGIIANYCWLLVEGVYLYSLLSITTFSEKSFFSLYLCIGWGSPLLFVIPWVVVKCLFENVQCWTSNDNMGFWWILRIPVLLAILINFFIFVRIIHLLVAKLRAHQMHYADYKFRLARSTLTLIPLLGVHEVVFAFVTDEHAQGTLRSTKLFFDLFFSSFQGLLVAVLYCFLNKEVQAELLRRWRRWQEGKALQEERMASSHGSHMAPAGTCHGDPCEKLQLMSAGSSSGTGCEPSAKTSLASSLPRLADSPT
T5 sequence (P47871 26-477): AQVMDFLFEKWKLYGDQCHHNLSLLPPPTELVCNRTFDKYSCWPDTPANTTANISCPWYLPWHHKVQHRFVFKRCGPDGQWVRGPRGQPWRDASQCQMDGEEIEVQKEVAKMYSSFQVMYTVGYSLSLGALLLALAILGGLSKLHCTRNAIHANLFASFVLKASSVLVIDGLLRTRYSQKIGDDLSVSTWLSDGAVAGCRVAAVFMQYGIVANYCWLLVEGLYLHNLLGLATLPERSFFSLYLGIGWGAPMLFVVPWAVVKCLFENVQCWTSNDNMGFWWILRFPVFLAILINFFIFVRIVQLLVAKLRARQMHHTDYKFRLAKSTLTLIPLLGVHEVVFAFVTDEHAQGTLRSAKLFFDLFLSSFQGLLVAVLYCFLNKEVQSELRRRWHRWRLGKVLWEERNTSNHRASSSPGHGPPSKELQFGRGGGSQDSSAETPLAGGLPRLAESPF
T2 sequence (P43220 24-463): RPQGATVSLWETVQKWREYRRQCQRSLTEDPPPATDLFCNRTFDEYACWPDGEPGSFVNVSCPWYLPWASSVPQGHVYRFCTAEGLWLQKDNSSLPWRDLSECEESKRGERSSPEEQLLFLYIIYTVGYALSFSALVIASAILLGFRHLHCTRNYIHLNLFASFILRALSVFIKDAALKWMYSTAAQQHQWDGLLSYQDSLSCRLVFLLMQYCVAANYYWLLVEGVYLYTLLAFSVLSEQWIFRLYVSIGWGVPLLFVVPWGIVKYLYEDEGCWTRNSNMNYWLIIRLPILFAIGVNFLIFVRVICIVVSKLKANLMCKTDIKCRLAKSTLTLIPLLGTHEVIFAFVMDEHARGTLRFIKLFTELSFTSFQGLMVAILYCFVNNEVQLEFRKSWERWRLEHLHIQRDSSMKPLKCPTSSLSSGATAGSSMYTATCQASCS

| Emax at 9.95 µM ([1]; HEK293, percent of response to 10 nM GIP(1-42)NH2, Examples at 9.95 μM, read-out: Emax hGIPR) [%] | EC50 ([1]; in the presence of FBS and BSA, read-out: cAMP EC50 hGIPR) [nM] | AUC(0-inf) ([2]; AUC0-inf) [ng·h/mL] | CL/F ([2]; CL/F) [mL/min/kg] | Emax [3] [%] | Ki [4] [nM] | cAMP EC50 [5] [nM] | Emax (% of response to 10 nM GLP-1(7-36)NH2) [6] [%] | Emax (% of response to 10 nM GIP(1-42)NH2), at 9.95 µM [7] [%] | cAMP EC50 [7] [nM] | Ki [8] [nM] | cAMP EC50 [9] [nM] | cAMP EC50 [10] [nM] | Emax (% of response to 1 nM Glucagon) [11] [%] | Molecule |
| --- | --- | --- | --- | --- | --- | --- | --- | --- | --- | --- | --- | --- | --- | --- |
| < 5 | > 9950 | 1.92 | 87 | 109 ± 4 |  |  |  |  |  |  |  |  |  | CC(C)C[C@H](NC(=O)[C@H](Cc1ccncc1)NC(=O)[C@H](CCCCN)NC(=O)[C@@H](NC(=O)[C@H](Cc1ccccc1)NC(=O)[C@H](C)NC(=O)[C@H](CCC(N)=O)NC(=O)[C@H](C)NC(=O)[C@H](CCCNC(=N)N)NC(=O)[C@H](CCCNC(=N)N)NC(=O)C(C)(C)NC(=O)[C@H](CC(=O)O)NC(=O)[C@H](CC(C)C)NC(=O)[C@H](Cc1ccc(O)cc1)NC(=O)[C@H](CCCCN)NC(=O)[C@H](CO)NC(=O)[C@H](Cc1ccc(O)cc1)NC(=O)[C@H](CC(=O)O)NC(=O)[C@H](CO)NC(=O)[C@@H](NC(=O)[C@H](Cc1ccccc1)NC(=O)[C@@H](NC(=O)CNC(=O)[C@H](CCC(N)=O)NC(=O)[C@H](CO)NC(=O)[C@@H](N)Cc1c[nH]cn1)[C@@H](C)O)[C@@H](C)O)C(C)C)C(=O)N[C@@H](CC(C)C)C(=O)N[C@@H](CO)C(=O)N[C@H](C(=O)O)[C@@H](C)O [Example 2] |
|  |  |  |  |  | 21.7 | 0.188 | 109 | < 5 | > 9950 | 2.08 | 0.0108 | 1300 |  | HS[Dab](Ac)GTFTSDYSKYLD[Aib]RRAQAFVK[4Pal]LLST-OH (N-terminus assumed; SMILES CC(=O)NCC[C@H](NC(=O)[C@H](CO)NC(=O)[C@@H](N)Cc1c[nH]cn1)C(=O)NCC(=O)N[C@H](C(=O)N[C@@H](Cc1ccccc1)C(=O)N[C@H](C(=O)N[C@@H](CO)C(=O)N[C@@H](CC(=O)O)C(=O)N[C@@H](Cc1ccc(O)cc1)C(=O)N[C@@H](CO)C(=O)N[C@@H](CCCCN)C(=O)N[C@@H](Cc1ccc(O)cc1)C(=O)N[C@@H](CC(C)C)C(=O)N[C@@H](CC(=O)O)C(=O)NC(C)(C)C(=O)N[C@@H](CCCNC(=N)N)C(=O)N[C@@H](CCCNC(=N)N)C(=O)N[C@@H](C)C(=O)N[C@@H](CCC(N)=O)C(=O)N[C@@H](C)C(=O)N[C@@H](Cc1ccccc1)C(=O)N[C@H](C(=O)N[C@@H](CCCCN)C(=O)N[C@@H](Cc1ccncc1)C(=O)N[C@@H](CC(C)C)C(=O)N[C@@H](CC(C)C)C(=O)N[C@@H](CO)C(=O)N[C@H](C(=O)O)[C@@H](C)O)C(C)C)[C@@H](C)O)[C@@H](C)O) [Example 3 compound (glucagon analog agonist, SEQ ID NO:5)] |
|  |  |  |  |  | 13.5 | 0.083 | 100 | < 5 | > 9950 | 1.2 | 0.00888 | 1270 | 98 | HS[Dab](Ac)GTFTSDYSKYLD[Aib]RRAQQFVK[4Pal]LLST-OH (N-terminus assumed; SMILES CC(=O)NCC[C@H](NC(=O)[C@H](CO)NC(=O)[C@@H](N)Cc1c[nH]cn1)C(=O)NCC(=O)N[C@H](C(=O)N[C@@H](Cc1ccccc1)C(=O)N[C@H](C(=O)N[C@@H](CO)C(=O)N[C@@H](CC(=O)O)C(=O)N[C@@H](Cc1ccc(O)cc1)C(=O)N[C@@H](CO)C(=O)N[C@@H](CCCCN)C(=O)N[C@@H](Cc1ccc(O)cc1)C(=O)N[C@@H](CC(C)C)C(=O)N[C@@H](CC(=O)O)C(=O)NC(C)(C)C(=O)N[C@@H](CCCNC(=N)N)C(=O)N[C@@H](CCCNC(=N)N)C(=O)N[C@@H](C)C(=O)N[C@@H](CCC(N)=O)C(=O)N[C@@H](CCC(N)=O)C(=O)N[C@@H](Cc1ccccc1)C(=O)N[C@H](C(=O)N[C@@H](CCCCN)C(=O)N[C@@H](Cc1ccncc1)C(=O)N[C@@H](CC(C)C)C(=O)N[C@@H](CC(C)C)C(=O)N[C@@H](CO)C(=O)N[C@H](C(=O)O)[C@@H](C)O)C(C)C)[C@@H](C)O)[C@@H](C)O) [Example 4 compound (glucagon analog agonist, SEQ ID NO:6)] |
|  |  |  |  |  | 17.4 | 0.135 | 105 | < 5 | > 9950 | 3.18 | 0.0143 | 181 | 103 | HSQGTFTSDYSKYLD[Aib]RRAQQFVK[4Pal]LLST-OH (N-terminus assumed; SMILES CC(C)C[C@H](NC(=O)[C@H](Cc1ccncc1)NC(=O)[C@H](CCCCN)NC(=O)[C@@H](NC(=O)[C@H](Cc1ccccc1)NC(=O)[C@H](CCC(N)=O)NC(=O)[C@H](CCC(N)=O)NC(=O)[C@H](C)NC(=O)[C@H](CCCNC(=N)N)NC(=O)[C@H](CCCNC(=N)N)NC(=O)C(C)(C)NC(=O)[C@H](CC(=O)O)NC(=O)[C@H](CC(C)C)NC(=O)[C@H](Cc1ccc(O)cc1)NC(=O)[C@H](CCCCN)NC(=O)[C@H](CO)NC(=O)[C@H](Cc1ccc(O)cc1)NC(=O)[C@H](CC(=O)O)NC(=O)[C@H](CO)NC(=O)[C@@H](NC(=O)[C@H](Cc1ccccc1)NC(=O)[C@@H](NC(=O)CNC(=O)[C@H](CCC(N)=O)NC(=O)[C@H](CO)NC(=O)[C@@H](N)Cc1c[nH]cn1)[C@@H](C)O)[C@@H](C)O)C(C)C)C(=O)N[C@@H](CC(C)C)C(=O)N[C@@H](CO)C(=O)N[C@H](C(=O)O)[C@@H](C)O) [Example 1 compound (glucagon analog agonist, SEQ ID NO:3)] |
|  |  |  |  |  | 34.2 | 0.204 | 109 | < 5 | > 9950 | 6.87 | 0.0265 | 250 |  | HSQGTFTSDYSKYLD[Aib]RRAQAFVK[4Pal]LLST-OH (N-terminus assumed; SMILES CC(C)C[C@H](NC(=O)[C@H](Cc1ccncc1)NC(=O)[C@H](CCCCN)NC(=O)[C@@H](NC(=O)[C@H](Cc1ccccc1)NC(=O)[C@H](C)NC(=O)[C@H](CCC(N)=O)NC(=O)[C@H](C)NC(=O)[C@H](CCCNC(=N)N)NC(=O)[C@H](CCCNC(=N)N)NC(=O)C(C)(C)NC(=O)[C@H](CC(=O)O)NC(=O)[C@H](CC(C)C)NC(=O)[C@H](Cc1ccc(O)cc1)NC(=O)[C@H](CCCCN)NC(=O)[C@H](CO)NC(=O)[C@H](Cc1ccc(O)cc1)NC(=O)[C@H](CC(=O)O)NC(=O)[C@H](CO)NC(=O)[C@@H](NC(=O)[C@H](Cc1ccccc1)NC(=O)[C@@H](NC(=O)CNC(=O)[C@H](CCC(N)=O)NC(=O)[C@H](CO)NC(=O)[C@@H](N)Cc1c[nH]cn1)[C@@H](C)O)[C@@H](C)O)C(C)C)C(=O)N[C@@H](CC(C)C)C(=O)N[C@@H](CO)C(=O)N[C@H](C(=O)O)[C@@H](C)O) [Example 2 compound (glucagon analog agonist, SEQ ID NO:4)] |
